Measurements: patent US20230167185A1 (STRIKE PHARMA, published 2023)

Key:
[1] = molecular target: T1, Biotinylated human CD40 (AcroBiosystems #CD0-H82E8) (human, UniProt P25942 21-193); assay: SPR, captured IgG2, SCK, 1:1 model
T1 construct: also called hCD40-avi; Human CD40-avi; not shown: C-terminal Avi-tag

[2] = molecular target: T2, Cynomolgus CD40 Fc chimera (R&D Systems #9660-CD) (cynomolgus, UniProt G7PG38 21-193); assay: SPR, captured IgG2, SCK, 1:1 model; apparent KD (appKD), dimeric antigen
T2 construct: range 21-193; also called cCD40-Fc

[3] = molecular target: T3, Human CD40 Fc chimera (R&D Systems #1493-CDB) (human, UniProt P25942 21-193); assay: as above
T3 construct: also called hCD40-Fc

[4] = molecular target: T4, Mouse CD40 (AcroBiosystems #TN5-M52H8) (mouse, UniProt P27512 24-193); assay: SPR, captured IgG2, single injection of mCD40
T4 construct: range 24-193; also called mCD40

[5] = molecular target: T5, caCD40-Fc (Sino Biological #70105-D02H) (canine, UniProt Q7YRL5 21-194); assay: SPR, captured IgG2, caCD40-Fc 0.16-100 nM, SCK
T5 construct: also called Canine CD40-Fc; canine CD40; not shown: Fc part of the bought fusion
T5 sequence (looked up): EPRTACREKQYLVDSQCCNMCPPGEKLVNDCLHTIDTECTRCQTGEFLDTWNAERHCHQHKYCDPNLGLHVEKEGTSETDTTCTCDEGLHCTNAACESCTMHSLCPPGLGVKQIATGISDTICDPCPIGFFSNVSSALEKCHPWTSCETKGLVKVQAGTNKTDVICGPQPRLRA

[6] = molecular target: T2, Cynomolgus CD40 Fc chimera (R&D Systems …); assay: SPR, captured IgG2, SCK, 1:1 model, dimeric antigen
[7] = molecular target: T3, Human CD40 Fc chimera (R&D Systems …); assay: as above
[8] = molecular target: human CD40 on cells (CD19+ cells of PBMC; monocyte-derived dendritic cells) (human, UniProt P25942 21-277); assay: cell-based or functional assay
Chain of human CD40 on cells (CD19+ cells of PBMC; monocyte-derived dendritic cells) (P25942 21-277 limits assumed): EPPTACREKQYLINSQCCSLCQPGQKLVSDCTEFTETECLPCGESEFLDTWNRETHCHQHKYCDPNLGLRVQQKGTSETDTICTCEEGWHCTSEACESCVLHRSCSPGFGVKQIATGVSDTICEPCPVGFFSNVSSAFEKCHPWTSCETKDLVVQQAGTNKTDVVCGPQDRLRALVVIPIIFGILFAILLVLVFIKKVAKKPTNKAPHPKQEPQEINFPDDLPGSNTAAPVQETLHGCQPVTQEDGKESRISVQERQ

T1 sequence (P25942 21-193): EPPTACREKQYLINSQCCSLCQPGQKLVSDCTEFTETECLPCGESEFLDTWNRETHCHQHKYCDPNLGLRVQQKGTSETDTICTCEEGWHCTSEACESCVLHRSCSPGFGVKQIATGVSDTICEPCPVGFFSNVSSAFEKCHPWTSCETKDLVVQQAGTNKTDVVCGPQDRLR
T3 sequence (P25942 21-193, change not shown): as the sequence (P25942 21-193) above
T2 sequence (G7PG38 entry or part of it mutant): as the sequence (P25942 21-193) above, with G43S, H56R, R70Q, W89L, A95S, L101P, S106L, H142R, L172Q counted along it
T4 sequence (P27512 24-193 limits assumed): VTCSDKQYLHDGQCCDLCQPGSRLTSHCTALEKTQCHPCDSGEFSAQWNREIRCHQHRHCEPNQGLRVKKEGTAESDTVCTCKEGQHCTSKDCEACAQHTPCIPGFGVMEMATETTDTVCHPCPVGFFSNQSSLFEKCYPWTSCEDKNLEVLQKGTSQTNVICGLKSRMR

Row | Binder | Kd [1] [nM] | koff [1] [s⁻¹] | kon [1] [M⁻¹ s⁻¹] | Kd [2] [nM] | Kd [3] [nM] | binding result [4] | binding result [5] | koff [6] [s⁻¹] | kon [6] [M⁻¹ s⁻¹] | koff [7] [s⁻¹] | kon [7] [M⁻¹ s⁻¹] | agonistic activity relative to the parental antibody SP9 (A9) (IL-12 production by MoDCs) [8] [%]
1 | Y-SM083-A9 (antibody, human IgG2, kappa, V domains shown, also called A9 antibody; SP9) VH: EVQLLESGGGLVQPGGSLRLSCAASGFTFSSYAMSWVRQAPGKGLEWVSGISGYSGSTYYADSVKGRFTISRDNSKNTLYLQMNSLRAEDTAVYYCARYYSYYGYYYFDYWGQGTLVTVSS VL: DIQMTQSPSSLSASVGDRVTITCRASQSISSYLNWYQQKPGKAPKLLIYAASSLQSGVPSRFSGSGSGTDFTLTISSLQPEDFATYYCQQGYPYPFTFGQGTKLEIKR | 37 | 0.0061 | 170000 | 4.5 | 5.1 | no binding (tested: 80 nM) | no binding (tested: 100 nM) | 0.0022 | 500000 | 0.0016 | 310000 | 
2 | Y-SM083-B8 (antibody, V domains shown) VH: not shown VL: DIQMTQSPSSLSASVGDRVTITCRASQSISSYLNWYQQKPGKAPKLLIYAASSLQSGVPSRFSGSGSGTDFTLTISSLQPEDFATYYCQQGYGYPPFTFGQGTKLEIK | 15 |  |  | 13 | 13 | no binding (tested: 80 nM) |  |  |  | 0.0015 | 120000 | 
3 | X-SM083-bi-23 (bispecific antibody, human IgG2, kappa) heavy: EVQLLESGGGLVQPGGSLRLSCAASGFTFSSYAMSWVRQAPGKGLEWVSGISGYSGSTYYADSVKGRFTISRDNSKNTLYLQMNSLRAEDTAVYYCARYYSYYGYYYFDYWGQGTLVTVSSASTKGPSVFPLAPCSRSTSESTAALGCLVKDYFPEPVTVSWNSGALTSGVHTFPAVLQSSGLYSLSSVVTVPSSNFGTQTYTCNVDHKPSNTKVDKTVERKCCVECPPCPAPPVAGPSVFLFPPKPKDTLMISRTPEVTCVVVDVSHEDPEVQFNWYVDGVEVHNAKTKPREEQFNSTFRVVSVLTVVHQDWLNGKEYKCKVSNKGLPAPIEKTISKTKGQPREPQVYTLPPSREEMTKNQVSLTCLVKGFYPSDIAVEWESNGQPENNYKTTPPMLDSDGSFFLYSKLTVDKSRWQQGNVFSCSVMHEALHNHYTQKSLSLSPGKGGGGSGGGGSEVQLLESGGGLVQPGGSLRLSCAASGFTFSNYWMSWVRQAPGKGLEWVSGISGNGGYTYFADSVKDRFTISRDNSKNTLYLQMNSLRAEDTAVYYCAGGDGSGWSFWGQGTLVTVSSGGGGSGGGGSGGGGSGGGGSQSVLTQPPSASGTPGQRVTISCTGSSSNIGAGYDVHWYQQLPGTAPKLLIYGNNNRPSGVPDRFSGSKSGTSASLAISGLRSEDEADYYCAAWDDSLSGRVFGGGTKLTVL light: not shown |  |  |  |  |  |  |  |  |  |  |  | 92
